# In ChEMBL document CHEMBL1122090, “Species- or isozyme-specific enzyme inhibitors. 7. Selective effects in inhibitions of rat adenylate kinase isozymes by adenosine 5'-phosphate derivatives” (J Med Chem, 1982):
# Experiments:
# [1] = substrate: C[C@H](OP(=O)(O)O)[C@H]1OC(n2cnc3c(N)ncnc32)[C@H](O)[C@@H]1O; experiment: (§1) Concentration of compound for half-maximal velocity to Adenylate kinase M isoenzyme
# [2] = substrate: C[C@@H]1[C@H](O)[C@@H](COP(=O)(O)O)O[C@H]1n1cnc2c(N)ncnc21; experiment: as §1
# [3] = substrate: Nc1ncnc2c1ncn2[C@@H]1O[C@H](CCP(=O)(O)O)[C@@H](O)[C@H]1O; experiment: as §1
# [4] = substrate: CNc1nc(N)c2ncn([C@@H]3O[C@H](COP(=O)(O)O)[C@@H](O)[C@H]3O)c2n1; experiment: as §1
# [5] = substrate: CCNc1nc(N)c2ncn([C@@H]3O[C@H](COP(=O)(O)O)[C@@H](O)[C@H]3O)c2n1; experiment: as §1
# [6] = substrate: Nc1nc(N)c2ncn([C@@H]3O[C@H](COP(=O)(O)O)[C@@H](O)[C@H]3O)c2n1; experiment: as §1
# [7] = substrate: Nc1ncnc2c1ncn2[C@@H]1O[C@H](COP(=O)(O)O)[C@@H](O)[C@H]1O; experiment: as §1
# [8] = substrate: Nc1nc(Cl)nc2c1ncn2[C@@H]1O[C@H](COP(=O)(O)O)[C@@H](O)[C@H]1O; experiment: as §1
# [9] = substrate: CN(C)c1nc(N)c2ncn(C3O[C@H](COP(=O)(O)O)[C@@H](O)[C@H]3O)c2n1; experiment: as §1
# [10] = substrate: Nc1ncnc2c1ncn2[C@@H]1O[C@H](/C=C/P(=O)(O)O)[C@@H](O)[C@H]1O; experiment: as §1
# [11] = substrate: C[C@H](OP(=O)(O)O)[C@H]1OC(n2cnc3c(N)ncnc32)[C@H](O)[C@@H]1O; experiment: (§2) Concentration for half-maximal velocity to Adenylate kinase III
# [12] = substrate: C[C@@H]1[C@H](O)[C@@H](COP(=O)(O)O)O[C@H]1n1cnc2c(N)ncnc21; experiment: as §2
# [13] = substrate: Nc1ncnc2c1ncn2[C@@H]1O[C@H](CCP(=O)(O)O)[C@@H](O)[C@H]1O; experiment: as §2
# [14] = substrate: CNc1nc(N)c2ncn([C@@H]3O[C@H](COP(=O)(O)O)[C@@H](O)[C@H]3O)c2n1; experiment: as §2
# [15] = substrate: CCNc1nc(N)c2ncn([C@@H]3O[C@H](COP(=O)(O)O)[C@@H](O)[C@H]3O)c2n1; experiment: as §2
# [16] = substrate: Nc1nc(N)c2ncn([C@@H]3O[C@H](COP(=O)(O)O)[C@@H](O)[C@H]3O)c2n1; experiment: as §2
# [17] = substrate: Nc1ncnc2c1ncn2[C@@H]1O[C@H](COP(=O)(O)O)[C@@H](O)[C@H]1O; experiment: as §2
# [18] = substrate: Nc1nc(Cl)nc2c1ncn2[C@@H]1O[C@H](COP(=O)(O)O)[C@@H](O)[C@H]1O; experiment: as §2
# [19] = substrate: Nc1ncnc2c1ncn2[C@@H]1O[C@H](/C=C/P(=O)(O)O)[C@@H](O)[C@H]1O; experiment: as §2
# [20] = substrate: CCC[C@H](OP(=O)(O)O)[C@H]1OC(n2cnc3c(N)ncnc32)[C@H](O)[C@@H]1O; experiment: as §2
Protein,Km [1] [µM],Km [2] [mM],Km [3] [mM],Km [4] [µM],Km [5] [mM],Km [6] [mM],Km [7] [µM],Km [8] [µM],Km [9] [mM],Km [10] [µM],Km [11] [µM],Km [12] [µM],Km [13] [µM],Km [14] [mM],Km [15] [mM],Km [16] [µM],Km [17] [µM],Km [18] [µM],Km [19] [µM],Km [20] [µM]
"Adenylate kinase isoenzyme 1 (Rattus norvegicus), P39069 (protein) MEDKLKKAKIIFVVGGPGSGKGTQCEKIVQKYGYTHLSTGDLLRAEVSSGSSRGKMLSSIMEKGELVPLETVLDMLRDAMLAKVDSSNGFLIDGYPREVKQGEEFERKIAQPTLLLYVDAGPETMTQRLLKRGETSGRVDDNEETIKKRLETYYKATEPVISFYDKRGIVRKVNAEGSVDTVFSQVCTYLDSLK",2000,5.5,4.2,2900,4.2,3.5,580,2700,7.5,2000,,,,,,,,,,
"GTP:AMP phosphotransferase AK3, mitochondrial (Rattus norvegicus), P29411 (protein) MGASGRLLRAVIMGAPGSGKGTGSSRITKHFELKHLSSGDLLRQNMLQGTEIAVLAKSFIDQGKLIPDDDMTRLALHELKNLTQCSWLLDGFPRTLPQAEALDRVYQIDTVINLNVPFEVIKLRLTARWIHPASGRVYNIEFNPPKTVGIDDLTGEPLIQREDDKPETVIKRLKAYEAQTEPVLQYYQKKGVLETFSGTETNKIRPHVYSFLQMKVPETIQKASVTP",,,,,,,,,,,1100,790,2200,3.7,5.4,1900,80,1600,1400,830
